Experimental data from the supplement of paper PMC10724198.
± gives the standard deviation of the averaged measurements.

test system: Saccharomyces cerevisiae; assay: protein stability index of tFT-peptide fusion (C-terminal peptide) (PSI (0-1 scale)); higher = more stable (slower turnover); details: genetic background: wild type; temperature: 30 C
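Further: PSI is a weighted mean of sequencing reads over stability bins, variants kept only with over 10 reads, mCherry proximal and sfGFP distal, peptide attached via GGGS linker.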

Question: How did the protein stability index turn out when PLSPPHRLTAAL was run?
Answer: 0.756 ± 0.19

Question: Which protein stability index does the source give for VNQVRVSICDLL here?
Answer: 0.69263 ± 0.00047

Question: Which protein stability index does the source give for KRRKKKKQSGGK here?
Answer: 0.645 ± 0.023

Question: GRSCAFCRVSRG was tested. Which protein stability index did it give?
Answer: 0.721 ± 0.083

Question: How did the protein stability index turn out when YTSPRSTGPSVG was run?
Answer: 0.732 ± 0.012

Question: With PPPPLSPPPAPA as the sequence, how does the protein stability index read?
Answer: 0.682 ± 0.048

Question: Which protein stability index does the source give for NRGTRQIIIKKK here?
Answer: 0.653 ± 0.038

Question: For TSARQGFFASLV, which protein stability index is on record?
Answer: 0.646 ± 0.049

Question: GGGGARRLAVGQ was tested. Which protein stability index did it give?
Answer: 0.678 ± 0.015

Question: LRGFGLGLRFFF was tested. Which protein stability index did it give?
Answer: 0.65 ± 0.013

Question: DSHDMSQDLFVN was tested. Which protein stability index did it give?
Answer: 0.767 ± 0.039

Question: How did the protein stability index turn out when PPPPARSPLTPL was run?
Answer: 0.725 ± 0.15

Question: Which protein stability index does the source give for LPPPYSHTPPPR here?
Answer: 0.581 ± 0.031

Question: For KDDEQESESKNN, which protein stability index is on record?
Answer: 0.667 ± 0.011

Question: NVKIDNKQRKNK was tested. Which protein stability index did it give?
Answer: 0.746 ± 0.019

Question: KGETSYTGIAVG was tested. Which protein stability index did it give?
Answer: 0.667 ± 0.085

Question: With GTGSRFRCLERS as the sequence, how does the protein stability index read?
Answer: 0.739 ± 0.031

Question: With RVGRCYPSIVRS as the sequence, how does the protein stability index read?
Answer: 0.6522 ± 0.0042

Question: GGWGGEVVLWQA was tested. Which protein stability index did it give?
Answer: 0.678 ± 0.073

Question: For RLRASFFFSPAL, which protein stability index is on record?
Answer: 0.733 ± 0.056

Question: With RTAPVPETAQQD as the sequence, how does the protein stability index read?
Answer: 0.678 ± 0.034

Question: With VFALFRLSSLDK as the sequence, how does the protein stability index read?
Answer: 0.673 ± 0.074

Question: With FARQSMLSKLQI as the sequence, how does the protein stability index read?
Answer: 0.587 ± 0.033

Question: For VRRLSASSDGKI, which protein stability index is on record?
Answer: 0.761 ± 0.14

Question: Which protein stability index does the source give for KKTKEQEGEKTE here?
Answer: 0.679 ± 0.026

Question: For PPPPPPSPPPPP, which protein stability index is on record?
Answer: 0.713 ± 0.038

Question: With GPCPCAPRSPSY as the sequence, how does the protein stability index read?
Answer: 0.6705 ± 0.0033

Question: With LIVSTAGVTQFS as the sequence, how does the protein stability index read?
Answer: 0.66 ± 0.012

Question: PATRIDAFPPVP was tested. Which protein stability index did it give?
Answer: 0.685 ± 0.022

Question: For SKEVVVEGKRQS, which protein stability index is on record?
Answer: 0.715 ± 0.065

Question: With CAADYRRHLQRP as the sequence, how does the protein stability index read?
Answer: 0.669 ± 0.026

Question: For CFVLPWHVPFGF, which protein stability index is on record?
Answer: 0.715 ± 0.021

Question: CRMPLFGSYPLG was tested. Which protein stability index did it give?
Answer: 0.683 ± 0.022

Question: With LGPFTEAVSRHC as the sequence, how does the protein stability index read?
Answer: 0.67 ± 0.021

Question: With CCFPPLSPPASP as the sequence, how does the protein stability index read?
Answer: 0.656 ± 0.072

Question: SVHAMDCNGYAN was tested. Which protein stability index did it give?
Answer: 0.643 ± 0.013

Question: With GPAAPAGNPETV as the sequence, how does the protein stability index read?
Answer: 0.6694 ± 0.0043

Question: FLSFFVLGVPGG was tested. Which protein stability index did it give?
Answer: 0.707 ± 0.039

Question: Which protein stability index does the source give for SRESTPDSHTMS here?
Answer: 0.726 ± 0.065

Question: For GKKKRKTKGKNR, which protein stability index is on record?
Answer: 0.663 ± 0.035

Question: With PPTGHAPSRALT as the sequence, how does the protein stability index read?
Answer: 0.676 ± 0.091

Question: How did the protein stability index turn out when RLGGTMVVGTGG was run?
Answer: 0.661 ± 0.041

Question: How did the protein stability index turn out when APTPPPPSPLAP was run?
Answer: 0.73 ± 0.051

Question: LGGGGPSVREGE was tested. Which protein stability index did it give?
Answer: 0.679 ± 0.05

Question: VVLTGPGYCLTL was tested. Which protein stability index did it give?
Answer: 0.763 ± 0.047

Question: TFSVPLPPPLAP was tested. Which protein stability index did it give?
Answer: 0.6573 ± 0.0038

Question: DKATGARGKPPR was tested. Which protein stability index did it give?
Answer: 0.649 ± 0.13

Question: With IYVGAGCLGHTE as the sequence, how does the protein stability index read?
Answer: 0.717 ± 0.068

Question: How did the protein stability index turn out when VAVWGGSGDWGR was run?
Answer: 0.729 ± 0.068

Question: How did the protein stability index turn out when RARFSASCRYRV was run?
Answer: 0.671 ± 0.048

Question: For GGEGMTCPGGGA, which protein stability index is on record?
Answer: 0.693 ± 0.039

Question: GCVVSIICGGRA was tested. Which protein stability index did it give?
Answer: 0.5639 ± 0.0013

Question: With FSRFWVSGGVVC as the sequence, how does the protein stability index read?
Answer: 0.599 ± 0.0082

Question: SRSPLCRCAPSF was tested. Which protein stability index did it give?
Answer: 0.6534 ± 0.0043

Question: For NVNAVAVILGAC, which protein stability index is on record?
Answer: 0.562 ± 0.0061

Question: IVVLMEADLAGC was tested. Which protein stability index did it give?
Answer: 0.583 ± 0.02

Question: With AFDRVPLVFVST as the sequence, how does the protein stability index read?
Answer: 0.564 ± 0.011

Question: Which protein stability index does the source give for GAGVSELCGAGW here?
Answer: 0.713 ± 0.11

Question: Which protein stability index does the source give for FMVVKWSPCAWC here?
Answer: 0.539 ± 0.026

Question: How did the protein stability index turn out when RAAREASQDIPN was run?
Answer: 0.753 ± 0.12

Question: HAPLIPRFALIP was tested. Which protein stability index did it give?
Answer: 0.677 ± 0.013

Question: With IRRRKRKRNQKP as the sequence, how does the protein stability index read?
Answer: 0.708 ± 0.032

Question: Which protein stability index does the source give for PPAPPPRLPSPP here?
Answer: 0.713 ± 0.098

Question: For GGAAGGGRGGDG, which protein stability index is on record?
Answer: 0.62 ± 0.069

Question: How did the protein stability index turn out when KTKNTQRKTEEN was run?
Answer: 0.653 ± 0.047

Question: How did the protein stability index turn out when AGGTRRRTGRRR was run?
Answer: 0.7019 ± 0.0024

Question: How did the protein stability index turn out when CNGPRLFDKSPI was run?
Answer: 0.695 ± 0.017

Question: Which protein stability index does the source give for WGRNRGASDPNL here?
Answer: 0.7198 ± 0.0046

Question: Which protein stability index does the source give for SPRLPLSRPLVV here?
Answer: 0.574 ± 0.0064

Question: EKKEGEREKQED was tested. Which protein stability index did it give?
Answer: 0.751 ± 0.15

Question: DQSSTIYKIIKE was tested. Which protein stability index did it give?
Answer: 0.672 ± 0.045

Question: With KAGVWLWVGGGG as the sequence, how does the protein stability index read?
Answer: 0.739 ± 0.015

Question: For PLLPPPGALFLL, which protein stability index is on record?
Answer: 0.718 ± 0.057

Question: With ALSDPDTVRLYA as the sequence, how does the protein stability index read?
Answer: 0.7107 ± 0.0032

Question: Which protein stability index does the source give for EWVLRTLVDTNW here?
Answer: 0.728 ± 0.0075

Question: How did the protein stability index turn out when VGGRVGERRGAP was run?
Answer: 0.656 ± 0.044

Question: LEEGLYQQEDIR was tested. Which protein stability index did it give?
Answer: 0.722 ± 0.076

Question: Which protein stability index does the source give for VVIFPPTFISGG here?
Answer: 0.643 ± 0.1

Question: For GIGGSGLVSVVD, which protein stability index is on record?
Answer: 0.716 ± 0.039

Question: With VTGSHARFSVPE as the sequence, how does the protein stability index read?
Answer: 0.658 ± 0.013

Question: For GARCHSKVTNAS, which protein stability index is on record?
Answer: 0.681 ± 0.036

Question: SVPRPPPPRAPL was tested. Which protein stability index did it give?
Answer: 0.646 ± 0.17

Question: Which protein stability index does the source give for RGFWRGGVVRGG here?
Answer: 0.73 ± 0.021

Question: Which protein stability index does the source give for RPQNDRKMRKVE here?
Answer: 0.621 ± 0.059

Question: Which protein stability index does the source give for GCGRLWAGIGRR here?
Answer: 0.678 ± 0.023

Question: Which protein stability index does the source give for HLPPPPTPFPLT here?
Answer: 0.757 ± 0.16

Question: How did the protein stability index turn out when RFLVFLLNFISI was run?
Answer: 0.564 ± 0.037

Question: For TWIPSFACQSLQ, which protein stability index is on record?
Answer: 0.70274 ± 0.00029

Question: How did the protein stability index turn out when SDGVSLRSFCWL was run?
Answer: 0.697 ± 0.035

Question: How did the protein stability index turn out when TFVVGTRVFSCD was run?
Answer: 0.631 ± 0.096

Question: Which protein stability index does the source give for VLTWGLLGRSAF here?
Answer: 0.729 ± 0.063

Question: ERGKRSTEWARK was tested. Which protein stability index did it give?
Answer: 0.681 ± 0.042

Question: PPSPPSPPPPLP was tested. Which protein stability index did it give?
Answer: 0.69 ± 0.012

Question: EQQLSHENMQFK was tested. Which protein stability index did it give?
Answer: 0.68 ± 0.01

Question: With WERREGTGMRAG as the sequence, how does the protein stability index read?
Answer: 0.748 ± 0.051

Question: Which protein stability index does the source give for SLSRLVGPLVSS here?
Answer: 0.611 ± 0.0066

Question: For VCGALRWCGGPD, which protein stability index is on record?
Answer: 0.705 ± 0.018

Question: PVYAYYVPCAPR was tested. Which protein stability index did it give?
Answer: 0.645 ± 0.091

Question: How did the protein stability index turn out when GIWVMVSVCSIA was run?
Answer: 0.537 ± 0.082

Question: With ECESGKFSLGGT as the sequence, how does the protein stability index read?
Answer: 0.68 ± 0.02

Question: VVNVVGRVVPKG was tested. Which protein stability index did it give?
Answer: 0.7396 ± 0.006
